For two substances, stoichiometry N results are on record in article PMC3817118.

For orientation: stoichiometry N means the number of molecules, sites or subunits per partner or assembly.

Assay [1] addresses central region of the human metapneumovirus phosphoprotein (HMPV P residues 158-237) (human metapneumovirus, strain NL1-00). Kind of assay: SAXS; Pced in solution at 3-6 mg/ml, 20 C; 20 mM Tris pH 7.5 with 150 mM NaCl, 800 mM NaCl, or NaCl plus 1 M NDSB-201; molecular weight from the volume of correlation Vc compared with the mass of a tetramer.
Assay [2] deals with core region of Pced (P_(core)), degradation fragment of HMPV P 158-237 found in the crystal (human metapneumovirus, strain NL1-00). Kind of assay: crystal structure; vapor diffusion, 25 % PEG 3350, 100 mM HEPES pH 7.5, 20 C, crystal after ~142 days; 3.1 A, molecular replacement with the ab initio P_(core) model; 2 tetramers in the asymmetric unit.

In the case of “central region of the human metapneumovirus phosphoprotein (HMPV P residues 158-237) (domain or fragment)”, in assay [1], the stoichiometry N was 4.

In the case of “core region of Pced (P_(core)), degradation fragment of HMPV P 158-237 found in the crystal (domain or fragment)”, the stoichiometry N in assay [2] was determined as 4.
